Drawing on US20060287320A1, “Preparation of thioarabinofuranosyl compounds and use thereof” (Southern Research Institute, priority 1998, published 2006), this text covers Km for one substance.

For orientation: Km means the concentration of substrate that gives half-maximal velocity.

This data set has as its system T1, Nc1ccn([C@@H]2S[C@H](CO)[C@@H](O)[C@@H]2O)c(=O)n1.
T1 construct: endogenous in cells; host or cells: Molt-4 cells (enzyme purified from the cells)
As to the kind of experiment: purified protein, by the assay type. The data set is classed as biochemical. Conditions: other: dCyd kinase activity from Molt-4 cells.

dCyd Kinase Activity Isolated from Molt-4 Cells (Homo sapiens), sequence (chain, as listed by the source): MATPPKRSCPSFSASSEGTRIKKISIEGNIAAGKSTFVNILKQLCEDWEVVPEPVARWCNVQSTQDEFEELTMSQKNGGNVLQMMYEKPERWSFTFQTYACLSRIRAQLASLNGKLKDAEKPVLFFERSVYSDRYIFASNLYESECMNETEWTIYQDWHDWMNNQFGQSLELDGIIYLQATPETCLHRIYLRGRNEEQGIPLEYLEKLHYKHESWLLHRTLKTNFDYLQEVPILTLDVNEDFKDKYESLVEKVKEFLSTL
Protocol: Each assay was done in duplicate and the kinetic constants were determined from linear double-reciprocal plots of 1/velocity versus 1/concentration of the substrate. The best line was determined by linear regression from at least 5 datum points, and the Km and Vmax were determined from the x and y intercepts.

On to “dCyd Kinase Activity Isolated from Molt-4 Cells (Homo sapiens)”, for which the Km worked out at 93 µM.
